Results reported in the nanobody polyreactivity screen of Harvey et al. (2022).

test: yeast display, Sf9 membrane polyspecificity reagent, FACS + sequencing; frameworks hold sequencing errors
Outline: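 Nanobodies from a synthetic yeast display library (Saccharomyces cerevisiae BJ5465), induced 36–48 hours with galactose, were stained 1 hour at 4 °C with 10% biotinylated, detergent-solubilized Sf9 membrane reagent, enriched on streptavidin microbeads, then FACS-sorted. Anti-HA (expression) and streptavidin (reagent binding) fluorescence set low and high (top ~1%) gates. Polyreactivity labels come from the gate of origin. Genes were colony-PCR amplified, MiSeq 2 × 250 sequenced and filtered by CDR length.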

| Sequence | polyreactivity (PSR sort gate) |
| --- | --- |
| QVQLVESGGGLVQAGGSLRLSCAASGLNFRKYAMGWYRQAPGKERELVAGISSGGSTYYADSVKGRFTISRDNAKNTVYLQMNSLKPEDTAVYYCAAKALRTMYYWGQGTQVTVSS | high polyreactivity |
| QVQLVESGGGLVQAGGSLRLSCAASGLNFYYYTMGWYREAPGKERELVATISRSGTSTNYADSVKGRFTISRDNAKNTVYLQMNSLKPEDTAVYYCAAVLRWRDLFSEYYYLGQGTQVTVSS | high polyreactivity |
| QVQLVESGGGLVQAGGSLRLSCAASGLSFYLYAMGWYRQAPGKERELVAAISSSGSSTYYADSVKGRFTISRDNAKNTVYLQMNSLKPEDTAVYYCNARGTRASRYDYWGQGTQVTVSS | high polyreactivity |
| QVQLVESGGGLVQAGGSLRLSCAASGLTFAFYAMGWYRQAPGKEREFVARIRTSAITYYADSVKGRFTISRDNAKTTVYLQMNSLKPEDTAVYYCAVSWNKLRDSSLYAYYYWGQGTQVTVSS | high polyreactivity |
| QVQLVESGGGLVQAGGSLRLSCAASGLTFASYAMGWYRQAPGKERELVAVISASGGSTYYADSVKGRFTISRDNAKNPVYLQMNSLKPEDTAVYYCAARHSLYGYWGQGTLVTVSS | high polyreactivity |
| QVQLVESGGGLVQAGGSLRLSCAASGLTFAYYAMGWYRQAPGKERELVAAISLSGGSTYYADSVKGRFTISRDNAKNTVYLQMNSLKPEDTAVYYCNKGSYYWWDPGSTYIDDYWGQGTQVTVSS | low polyreactivity |
| QVQLVESGGGLVQAGGSLRLSCAASGLTFDAYAMGWYRHAPRKERELVAAISWSGGSTYYADSVKGRFTISRDNAKNTVYLQMNSLKPEDTAVYYSNARYAQFRFWGQGTQVTVSS | high polyreactivity |
| QVQLVESGGGLVQAGGSLRLSCAASGLTFDGNAMGWYRQAPGKERELVATIRSGGGTNYADSVKGRFTISRDNAKNTVYLQMNSLKPEDTAVYYCNADYRSVYSPVQYPGEYYYWGQGTQVTVSS | low polyreactivity |
| QVQLVESGGGLVQAGGSLRLSCAASGLTFDGNTMGWYRQAPGKERELVAAISFDGGNTYADSVNGRFTISRDNAKNTVYLQMNSLKPEDTAVYYDYWGQGTQVTVSS | low polyreactivity |
| QVQLVESGGGLVQAGGSLRLSCAASGLTFDKIAMGWYRQAPGKERELVAAISTSGGGTYYADSVKGRFTISRDNPKTTVYLQRNSLKPEDTAVYYCAAKHYYYSPYVRYDPPPGYYWGQGTQVTVSS | high polyreactivity |
| QVQLVESGGGLVQAGGSLRLSCAASGLTFDKYVMGWYRQAPGKERELVAAITKGGGSTYYADSVKGRFTISRDNAKNTVYLQMNSLKPEDTAVYYCAVTLPLRYWGQGTQVTVSS | high polyreactivity |
| QVQLVESGGGLVQAGGSLRLSCAASGLTFDPYALGWYRQAPGKERELVATISWSTSSTYYADSVKGRFTISRDNAKNTVYLQMNSLKPEDTAVYYCNAGYIESWFLQWIEYDYWGQGTQVTVSS | high polyreactivity |
| QVQLVESGGGLVQAGGSLRLSCAASGLTFDPYAMGWYRQAPGKEREFVAAINSDDGSTYYADSVKGRFTISRDNAKNTVYLQMNSLKPEDTAVYYCNADLAHFLWYQYDYWGQGTQVTVSS | low polyreactivity |
| QVQLVESGGGLVQAGGSLRLSCAASGLTFDPYAMGWYRQAPGKEREFVATITTSGDSTYYADSVKGRFTISRDNAKNTVYLQMNSLKPEDTAVYYCNTQSRTLGWPLDYWGQGTQVTVSS | high polyreactivity |
| QVQLVESGGGLVQAGGSLRLSCAASGLTFDVYAMGWYRQAPGKERELVAAISSIGGSTYYADSVKGRFTISRDNAKNTVYLQMNSLKPEDTAVYYCAAAISLYSYDYWGQGTQVTVSS | low polyreactivity |
| QVQLVESGGGLVQAGGSLRLSCAASGLTFDWYAMGWYRQAPGKERELVAAISWNGVSTDYADSVKGRFTISRDNAKNTVYLQMNSLKPEDTAVYYCAADPPWYLYVGFDYWGQGTQVSVSS | high polyreactivity |
| QVQLVESGGGLVQAGGSLRLSCAASGLTFDWYTKGWSRQAPGKERELVATINSGGSTDYADSVKGRFTISRDNAKNTVYLQLNSLKPEDTAVYYCNAEYGYSGVGDDYWGQGTQVTVSS | low polyreactivity |
